Assay results: paper PMC2117344, “A New In Vitro Strand Transfer Assay for Monitoring Bacterial Class 1 Integron Recombinase IntI1 Activity”

B1: attI1ds (dsDNA)
DNA 1: ACGCCGTGGGTCGATGTTTGATGTTATGGAGCAGCAACGATGTTACGCAGCAGGGCAGTCGCCCTAAAACAAAGTTAGGTGGCTCAATGAGCATCATTGC
DNA 2: GCAATGATGCTCATTGAGCCACCTAACTTTGTTTTAGGGCGACTGCCCTGCTGCGTAACATCGTTGCTGCTCCATAACATCAAACATCGACCCACGGCGT
B2: attC bottom strand (attCbs) (ssDNA)
DNA: AGTGCATCTAACGCCTGAGTTAAGCCGCGGTGCGCAGTGGCAAGCGGCGTGCGAAGCTTAGCGTAGCACGCAAGCGCCGCCACGAAGCAACGTCGGCTTGAACGAATTGTTAGACGGGCG
B3: attC top strand (attCts) (ssDNA)
DNA: CGCCCGTCTAACAATTCGTTCAAGCCGACGTTGCTTCGTGGCGGCGCTTGCGTGCTACGCTAAGCTTCGCACGCCGCTTGCCACTGCGCACCGCGGCTTAACTCAGGCGTTAGATGCACT

Molecular target: T1, IntI1(his)6 wild type (Pseudomonas aeruginosa Pa695 (class 1 …, UniProt Q7BP41 1-337))
T1 sequence: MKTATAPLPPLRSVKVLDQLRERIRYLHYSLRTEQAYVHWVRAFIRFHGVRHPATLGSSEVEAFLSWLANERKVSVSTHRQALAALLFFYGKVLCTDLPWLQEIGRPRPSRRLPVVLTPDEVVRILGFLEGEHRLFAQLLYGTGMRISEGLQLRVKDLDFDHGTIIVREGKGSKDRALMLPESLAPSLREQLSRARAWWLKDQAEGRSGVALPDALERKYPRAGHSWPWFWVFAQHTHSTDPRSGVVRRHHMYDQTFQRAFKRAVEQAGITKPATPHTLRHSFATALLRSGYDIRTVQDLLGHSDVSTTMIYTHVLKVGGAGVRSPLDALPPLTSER
Assay: EMSA; 20 min at 4 C in 20 ul, 0.1 pmol DNA, 1-10 pmol IntI1, 1% agarose gel at 4 C; filter wash buffer 20 mM HEPES pH 7.5, 10 mM MnCl2, 30 mM NaCl (pre-wash 10 mM NaCl, 100 ug/ml calf thymus DNA); exact binding buffer not given
Conditions: protein: recombinant, tags: C-terminal His6 (pET101D-Topo), label: 5' 32P

| Binder | binding result (blunt) | binding result (single strand) |
| --- | --- | --- |
| B1 | binds | – |
| B2 | – | binds |
| B3 | – | no binding |
